The supplement of paper PMC10567573

B1: TPD52L1 (parent)
chain: ISKKFGDMSYSIRHSISMPAMRNS
B2: NCK2 (parent)
chain: YTGPSSSGRFAGREWYYGNVTRHQ
B3: PTPN9 (parent)
chain: LKGAFPARLKKVLIVGAPIWFRVP

Variants of: B1
Assay: protein stability index of a GFP-peptide fusion (GPS, HEK-293T) (PSI 1-6); higher = more stable
Details: c terminus: a fixed tail appended
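Note: lentivirally expressed fusions sorted by FACS into six bins by GFP to DsRed ratio, PSI derived from sequencing read proportions per bin multiplied by bin number.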

Protein stability index: each site, then its substitutions
K3: Q 2.25, H 2.37, L 2.83, F 4.67, Y 2.8, N 2.5, I 3.53, C 2.69, G 2.25, W 3.69, V 4.4, R 2.16, D 2.34, S 2.25, A 1.57, M 2.67, T 2.19, P 2.63, E 2.62
I1: D 3.33, Q 2.88, S 3.16, A 2.58, K 2.17, C 2.26, F 1.88, R 2.16, M 2.33, V 3.17, H 2.42, E 2.9, T 2.9, P 2.89, W 2.2, Y 1.54, L 2.23, N 2.87, G 2.65
F5: A 2.97, D 2.46, C 2.26
S2: T 2.21, C 1.82, N 2.37, F 1.74, H 2.11, Y 1.74, M 1.75, R 2.54, E 2.83, V 2.34, W 1.83, I 2.97, A 2.41, G 2.88, D 2.94, K 2.74, Q 2.37, P 2.89, L 2.97
K4: P 2.48, C 2.36, E 2.33, I 1.98, T 2.48, N 2.13, Y 2.71, M 2.1, S 2.71, Q 2.09, L 1.52, F 1.58, G 2, A 2.35, W 1.76, V 2.01, H 2.57, D 2.47, R 2.65

Variants of: B2
Assay: as above
Details: c terminus: a fixed tail appended

Protein stability index of substitutions, site by site:
V20: Q 1.83, R 2.42, H 2.34, S 1.66, T 1.75, G 2.57, A 1.73, D 2.92, F 1.59, M 1.85, P 1.81, E 1.67, K 2.2, I 2.71, N 1.98, C 2.13, L 1.88, Y 2.44
N19: C 1.55, R 2.53, W 3.18, Y 1.91, Q 3.23, P 2.58, D 1.76, L 2.05, M 3.08, S 1.44, F 2.01, K 1.38, E 1.53, G 1.63, V 1.61, A 2.09, H 2.12, I 1.53, T 2.44
G18: C 2.35, L 3, E 1.44, Q 2.23, M 1.55, K 2.64, A 1.46, V 2.68, R 2.44, S 2.99, Y 2.03, D 2.39, P 1.89, T 1.04, N 2.49, W 2.18, F 1.6, I 1.74, H 2.11
H23: F 1.79, G 1.88, K 2.33, C 1.07, N 2.09, R 1.53, D 2.52, P 1.23, Y 1.42, E 1.47, A 2.86, W 2.71, Q 1.31, L 2.81, I 2, V 1.56, S 1.79, T 1.46, M 1.56
T21: E 2.05, S 2.13, A 1.84, N 2.4, M 2.29, H 1.9, Y 1.91, K 1.74, V 2.64, Q 1.78, R 1.68, I 1.87, D 1.76, P 2.06, F 2.53, G 1.45, C 2.37, L 2.34
Q24: K 2.42, Y 1.72, S 2.25, M 2.44, D 2.51, E 1.41, V 2.17, C 2.61, N 1.62, F 1.59, P 2.07, W 2.83, H 1.85, R 1.55, T 1.18, G 1.56, I 2.01, A 1.96, L 2.07
R22: W 1.61, V 2.18, P 1.14, G 2.62, E 1.85, C 1.7, Q 2.17, M 1.79, F 2.65, Y 2.17, L 1.56, K 1.46, H 1.33, D 1.65, N 2.35, A 2
Y17: L 1.58, C 1.77, K 1.91, V 1.89, T 1.36, Q 1.97, H 2.06, S 2.44, P 1.76, D 2.64, N 1.59, M 1.87, R 2.19, E 2.56, G 2.83, I 3.41

Variants of: B3
Assay: as above
Details: c terminus: a fixed tail appended

Protein stability index of substitutions, site by site:
G16: W 1.74, P 5.02, F 2.2, I 1.57, N 2.29, R 3.43
F21: N 2.65, L 1.57, R 2.39
V15: S 1.37, K 1.37, Y 2.25, H 2.46, W 1.27, F 2.48, T 2.46, D 2.44, Q 1.55
V23: P 2.07, D 2.11
K2: N 2.18, F 1.26, R 3.96, A 2.1, L 3.37
V12: G 1.27, A 3.43, N 3.54, T 2.61, R 2.3
P24: D 4.03, E 1.31, K 3.06, L 3.02
L1: I 4.73, C 3.38, K 2.78, W 2.11, V 3.26, S 4.61
A17: F 2.16, T 4.8, L 3.42, N 2.61, K 2.28
K11: F 4.03, G 1.84, E 2.73, H 1.99, I 2.21
L13: P 2.55, F 2.82, N 1.7, I 3.11, D 1.01
R8: F 2.79, W 2.35, N 2.74, M 2.46, L 2.2, G 2.76, S 3.94
P18: C 2.33, W 4.58, G 4.24, T 1.99
I14: A 4.13, D 1.46, E 1.09, R 2.87, N 1.37, L 2.73, P 2.98
P6: H 2.28, M 1.86
A7: Q 2.24, F 3.16, V 2.57
I19: E 2.64, T 4.11, S 1.95, H 1
L9: F 1.64, V 4.71, K 2.57
K10: S 3.47, Q 2.94, Y 2.2
G3: A 2.89, D 3.16, K 3.39, S 3.35
A4: I 3.45, D 3.24, F 2.49, L 3.88, Q 2.61
R22: L 4.03, G 2.34, H 2.47, D 1.87, P 3.02
W20: K 2.56, F 2.45, H 4.59, S 2.41, E 3.74
F5: T 2.25, L 3.82, I 3.12, P 2.49
